Measured values from article PMC4815018, “Oligomerization as a strategy for cold adaptation: Structure and dynamics of the GH1 β-glucosidase from Exiguobacterium antarcticum B7” (Scientific Reports, 2016).

Experiments:
EaBglA = target: T1, EaBglA (Exiguobacterium antarcticum, UniProt A0ABF7PFW8); assay: colorimetric release of 4-nitrophenol at […] nm; type: biochemical; details: 0.5 mM pNPG, 20 nM enzyme, 40 mM sodium phosphate pH 7.0, 30 °C, 10 min; tetramer
T1 construct: gene bglA

[1] = target: GH1 β-glucosidase from Exiguobacterium antarcticum B7 (Exiguobacterium antarcticum B7); assay: crystal structure; two crystal forms, P2(1) (0.1 M TRIS pH 8.5, 2% PEG400, 1.45 M lithium sulfate) and C222(1) (0.1 M CAPS pH 10.5, 0.2 M lithium sulfate, 2 M ammonium sulfate, in situ proteolysis with trypsin); 18 °C, protein at 15 mg/mL
[2] = target: GH1 β-glucosidase from Exiguobacterium antarcticum B7 (Exiguobacterium antarcticum B7); assay: SAXS; 1 and 2 mg/mL in 20 mM sodium phosphate, 150 mM NaCl, pH 7.4, 20 °C; experimental curve and ab initio model compared with the crystallographic tetramer
[3] = target: GH1 β-glucosidase from Exiguobacterium antarcticum B7 (Exiguobacterium antarcticum B7)
[4] = target: GH1 β-glucosidase from Exiguobacterium antarcticum B7 (Exiguobacterium antarcticum B7); assay: AUC; sedimentation velocity, 35,000 rpm, 20 °C, 0.2, 0.4 and 1 mg/mL in 20 mM sodium phosphate, 150 mM NaCl, pH 7.4
[5] = target: GH1 β-glucosidase from Exiguobacterium antarcticum B7 (Exiguobacterium antarcticum B7); assay: SEC; Superdex 75 16/60, 20 mM sodium phosphate, 150 mM NaCl, pH 7.5, 0.5 mL/min; two peaks (tetramers and monomers); samples at 4 mg/mL

T1 sequence (A0ABF7PFW8 entry or part of it): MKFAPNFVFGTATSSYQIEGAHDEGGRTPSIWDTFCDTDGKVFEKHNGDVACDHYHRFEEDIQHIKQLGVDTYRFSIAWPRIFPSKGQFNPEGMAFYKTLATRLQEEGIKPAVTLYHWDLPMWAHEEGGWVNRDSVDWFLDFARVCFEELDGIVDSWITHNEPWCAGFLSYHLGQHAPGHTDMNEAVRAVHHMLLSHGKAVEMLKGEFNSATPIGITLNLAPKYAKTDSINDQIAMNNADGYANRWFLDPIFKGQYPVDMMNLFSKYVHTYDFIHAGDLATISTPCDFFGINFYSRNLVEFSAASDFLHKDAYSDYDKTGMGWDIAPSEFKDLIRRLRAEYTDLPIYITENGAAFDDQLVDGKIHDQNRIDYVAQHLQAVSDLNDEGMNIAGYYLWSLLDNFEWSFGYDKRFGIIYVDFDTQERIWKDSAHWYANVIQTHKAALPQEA

stoichiometry N [1] | stoichiometry N [2] | relative enzyme activity on pNPG (30 °C, pH 7.0, 20 nM enzyme) of the monomer fraction against the tetramer fraction [3] | stoichiometry N [4] | stoichiometry N [5] | Compound | relative activity (%) (EaBglA)
 |  |  |  |  | O=[N+]([O-])c1ccc(O[C@@H]2O[C@H](CO)[C@@H](O)[C@H](O)[C@H]2O)cc1 [4-nitrophenyl β-D-glucopyranoside] | Enzyme activity was measured using the colorimetric substrate 4-nitrophenyl β-D-glucopyranoside (pNPG
4 | 4 | 10 fold | 4 | 4 | GH1 β-glucosidase from Exiguobacterium antarcticum B7 (enzyme) | 
